The source of these data is patent publication US20150307889.

Series [1] has as its system zmPPL_1360-30a1 ZFN monomer (synthetic construct). Description: cell_activity. The note with it: ZFN pair with zmPPL_1360-r23a1 in bombarded haploid maize callus; control 5.0; locus target SEQ 32.
Series [2] has as its system zmPPL_1360-r23a1 ZFN monomer (synthetic construct). Description: cell_activity. The note with it: ZFN pair with zmPPL_1360-30a1 in bombarded haploid maize callus; control 5.0; locus target SEQ 32.

Sequence “TTCGCGGTGGGACACTTG (double strand) [zmPPL_1360-30a1 half-site (PPL1 locus)]” yielded an activity (indels per 1 million high quality reads) in series [1] of 40.
With “ACTCCGTATGCGAAGGCA (double strand) [zmPPL_1360-r23a1 half-site (PPL1 locus)]”, the activity (indels per 1 million high quality reads) in series [2] was 40.
